These results are taken from patent publication US20250092426, “CAS ENDONUCLEASES AND RELATED METHODS” (Flagship Pioneering Innovations VII, LLC, published 2025).

The target of this data set is T1, CasEnd-12 (synthetic construct).
T1 chain: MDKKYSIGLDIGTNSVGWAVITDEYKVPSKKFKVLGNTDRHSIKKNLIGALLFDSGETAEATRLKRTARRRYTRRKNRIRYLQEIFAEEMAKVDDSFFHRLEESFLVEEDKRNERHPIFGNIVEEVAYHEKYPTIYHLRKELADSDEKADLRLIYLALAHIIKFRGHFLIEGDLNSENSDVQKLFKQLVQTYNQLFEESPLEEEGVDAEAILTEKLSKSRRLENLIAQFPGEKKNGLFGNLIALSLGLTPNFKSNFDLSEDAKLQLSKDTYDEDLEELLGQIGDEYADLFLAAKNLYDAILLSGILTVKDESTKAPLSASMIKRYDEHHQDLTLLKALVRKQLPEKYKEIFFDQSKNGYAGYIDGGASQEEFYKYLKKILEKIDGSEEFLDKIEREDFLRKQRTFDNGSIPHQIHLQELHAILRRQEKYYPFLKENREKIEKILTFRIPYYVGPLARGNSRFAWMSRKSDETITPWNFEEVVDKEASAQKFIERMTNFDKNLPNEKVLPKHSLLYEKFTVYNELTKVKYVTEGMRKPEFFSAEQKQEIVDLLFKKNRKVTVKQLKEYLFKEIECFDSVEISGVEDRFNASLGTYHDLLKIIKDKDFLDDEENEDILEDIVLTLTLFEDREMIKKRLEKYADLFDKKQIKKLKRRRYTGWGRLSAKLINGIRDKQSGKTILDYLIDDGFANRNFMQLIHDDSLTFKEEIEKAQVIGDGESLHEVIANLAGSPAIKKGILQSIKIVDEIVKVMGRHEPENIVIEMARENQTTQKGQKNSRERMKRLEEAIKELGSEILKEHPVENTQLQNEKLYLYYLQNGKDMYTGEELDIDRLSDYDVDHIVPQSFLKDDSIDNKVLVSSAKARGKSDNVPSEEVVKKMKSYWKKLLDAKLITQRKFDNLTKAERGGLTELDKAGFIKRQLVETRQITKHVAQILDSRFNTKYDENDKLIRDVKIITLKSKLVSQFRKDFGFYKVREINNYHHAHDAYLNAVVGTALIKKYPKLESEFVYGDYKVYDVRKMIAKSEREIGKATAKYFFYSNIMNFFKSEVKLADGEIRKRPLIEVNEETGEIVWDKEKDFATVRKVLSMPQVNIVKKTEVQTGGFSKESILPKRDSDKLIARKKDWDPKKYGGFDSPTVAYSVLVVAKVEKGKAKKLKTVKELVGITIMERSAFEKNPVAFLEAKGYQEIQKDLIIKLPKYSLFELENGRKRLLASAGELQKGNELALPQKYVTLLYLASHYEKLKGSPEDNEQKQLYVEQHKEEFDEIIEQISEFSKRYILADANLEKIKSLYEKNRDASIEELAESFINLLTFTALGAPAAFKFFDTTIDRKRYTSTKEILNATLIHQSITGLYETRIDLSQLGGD
Kind of data set: cell_activity; +++; HEK293T; PAM not stated. On the procedure:
The ability of the candidate endonucleases, including endonucleases 1-38 (CasEnds 1-38) (set forth in Table 1 and SEQ ID NOS: 1-38, respectively), to mediate target nucleic acid editing was assessed utilizing a blue fluorescent protein (BFP) to green fluorescent protein (GFP) conversion assay, wherein programmed nucleotide editing of the BFP gene was measured by the expression of GFP (signifying the conversion of […] via the programmed nucleotide edit in the BFP gene). The conversion assay was conducted utilizing the reverse transcriptase-based system (as described above in Example 2) comprising a template RNA (designed to convert BFP to GFP) and a fusion protein comprising a retroviral reverse transcriptase and the individual subject Cas endonuclease. The amino acid sequence of the base portion of the fusion protein (without the individual subject Cas endonuclease) is set forth in Table 7 (SEQ ID NO: 43).
Briefly, 200 ng of plasmid DNA encoding the subject fusion protein (containing one of the subject CasEnds) and 200 ng of template RNA (in plasmid format) were added to 25 μL SF buffer containing 250,000 HEK293T BFP-expressing cells. Nucleofection was mediated utilizing program DS-150. The day of nucleofection was marked as day 0. At day 4, the cells were harvested and analyzed by flow cytometry to assess the level of BFP and GFP expression in HEK293T cells. Cells having GFP signal were defined as having undergone a successful editing event, and the percent of cells that were GFP+ on day 4 was used to determine the performance of each Cas endonuclease.

A value given as a limit tells only on which side of the number the result lay.

B1: BFP-to-GFP template RNA ; BFP reporter protospacer (ssRNA ; dsDNA)
RNA: GCCGAAGCACUGCACGCCGUGUUUUAGAGCUAGAAAUAGCAAGUUAAAAUAAGGCUAGUCCGUUAUCAACUUGAAAAAGUGGCACCGAGUCGGUGCACCCUGACGUACGGCGUGCAGUGCUU
DNA 1: GCCGAAGCACTGCACGCCGT
DNA 2: ACGGCGTGCAGTGCTTCGGC
On to B1, for which the activity was ≥ 100 % of reference.
